This note sets out measurements from patent US6696409 (PRINCE OF WALES MEDICAL RESEARCH INSTITUTE LIMITED POWMR, dated 2004).

First the molecules themselves.
T1: human neuropeptide Y Y1 receptor on SK-N-MC cells (human, UniProt P25929 1-384)
T1 construct: whole, on cells; also called NPY Y1 receptor; SK-N-MC (Y1)
T1 sequence (looked up): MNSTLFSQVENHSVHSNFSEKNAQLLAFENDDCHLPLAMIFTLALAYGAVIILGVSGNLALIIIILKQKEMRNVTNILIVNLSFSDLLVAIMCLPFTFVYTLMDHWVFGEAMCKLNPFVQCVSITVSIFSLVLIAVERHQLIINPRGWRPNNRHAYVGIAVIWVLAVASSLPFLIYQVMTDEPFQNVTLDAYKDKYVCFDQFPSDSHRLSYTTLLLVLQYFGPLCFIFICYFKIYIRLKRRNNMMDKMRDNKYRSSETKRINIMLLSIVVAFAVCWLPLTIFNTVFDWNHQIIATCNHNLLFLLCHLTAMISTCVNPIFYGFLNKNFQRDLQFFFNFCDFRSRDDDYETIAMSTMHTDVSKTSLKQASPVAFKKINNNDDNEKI

T2: human neuropeptide Y Y2 receptor on SMS-MSN cells (human, UniProt P49146 1-381)
T2 construct: whole, on cells; also called NPY Y2 receptor; SMS-MSN (Y2)
T2 sequence (looked up): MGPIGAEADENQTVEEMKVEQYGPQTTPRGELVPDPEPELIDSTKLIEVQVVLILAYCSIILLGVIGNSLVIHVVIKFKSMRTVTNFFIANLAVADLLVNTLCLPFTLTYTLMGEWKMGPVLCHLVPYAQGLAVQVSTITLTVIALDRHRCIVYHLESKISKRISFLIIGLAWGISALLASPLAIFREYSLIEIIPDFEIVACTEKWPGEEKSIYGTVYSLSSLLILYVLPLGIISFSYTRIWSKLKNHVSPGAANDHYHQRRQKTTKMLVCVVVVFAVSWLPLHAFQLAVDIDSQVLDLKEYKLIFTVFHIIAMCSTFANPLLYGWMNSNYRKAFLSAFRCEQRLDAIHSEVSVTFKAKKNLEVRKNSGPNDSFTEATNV

B1: Ac[A24,A27,L28,L31]NPY24-36 (peptide)
peptide: Ac-ARHALNLLTRQRY-NH2
notes: also called Ac[Ala24, Ala27, Leu28, Leu31]NPY(24-36)
B2: Neuropeptide Y (ligand)
peptide: not shown

Usually IC50 stands for the concentration that inhibits the measured activity by half. The low end stands for greater potency, the high end for weaker potency.

One assay concerns the target Y2-like receptors in anaesthetised rats (rat). The assay can be described thus: cell-based or functional assay.
Turning to Ac-ARAALNAATRQRY-NH2 [Ac[A24,26,27,30,31,L28]NPY24-36], the “EC50 of the change in pulse interval (PI %), vagal stimulation in anaesthetised rats” value was determined as 0.56 nmol.

Turning to Ac-LRHYLNLLTRQRY-NH2 [Ac[L28,L31]NPY24-36], the “EC50 of the change in pulse interval (PI %), vagal stimulation in anaesthetised rats” value stood at 3.16 nmol.

In the case of Ac-LRHALNLLTRQRY-NH2 [Ac[A27,L28,L31]NPY24-36], the “EC50 of the change in pulse interval (PI %), vagal stimulation in anaesthetised rats” value was 0.52 nmol.

As to Ac-LRHYLNALTRQRY-NH2 [Ac[L28,A30,L31]NPY24-36], the “EC50 of the change in pulse interval (PI %), vagal stimulation in anaesthetised rats” value turned out to be 0.39 nmol.

For Ac-LRHYLALLTRQRY-NH2 [Ac[L28,A29,L31]NPY24-36], the “EC50 of the change in pulse interval (PI %), vagal stimulation in anaesthetised rats” value came to 1.48 nmol.

As for Ac-LRHYANLLTRQRY-NH2 [Ac[A28,L31]NPY24-36], the “EC50 of the change in pulse interval (PI %), vagal stimulation in anaesthetised rats” value was 2.75 nmol.

Consider Ac-LRHYLNLATRQRY-NH2 [Ac[L28,A31]NPY24-36], for which the “EC50 of the change in pulse interval (PI %), vagal stimulation in anaesthetised rats” value turned out to be 0.78 nmol.

With B1, the “EC50 of the change in pulse interval (PI %), vagal stimulation in anaesthetised rats” value stood at 0.89 nmol.

On to Ac-LRAYLNLLTRQRY-NH2 [Ac[A26,L28,L31]NPY24-36], for which the “EC50 of the change in pulse interval (PI %), vagal stimulation in anaesthetised rats” value was 1.26 nmol.

Ac-LAHYRNLLTRQRY-NH2 [Ac[A25,R28,L31]NPY24-36]: the “EC50 of the change in pulse interval (PI %), vagal stimulation in anaesthetised rats” value was 1.95 nmol.

For Ac-LRHYLNLLARQRY-NH2 [Ac[L28,L31,A32]NPY24-36], the “EC50 of the change in pulse interval (PI %), vagal stimulation in anaesthetised rats” value is 6.46 nmol.

For the molecule Ac-LAHYLNLLTRQRY-NH2 [Ac[A25,L28,L31]NPY24-36], the “EC50 of the change in pulse interval (PI %), vagal stimulation in anaesthetised rats” value turned out to be 1.58 nmol.

For the molecule Ac-ARHYLNLLTRQRY-NH2 [Ac[A24,L28,L31]NPY24-36], the “EC50 of the change in pulse interval (PI %), vagal stimulation in anaesthetised rats” value came out at 0.46 nmol.

On to Ac-LRAALNLLTRQRY-NH2 [Ac[A26,27,L28,31]NPY24-36], for which the “EC50 of the change in pulse interval (PI %), vagal stimulation in anaesthetised rats” value turned out to be 1 nmol.

For a further assay, the target named is Y1 receptors in anaesthetised rats (rat). The assay can be described thus: cell-based or functional assay.
As for Ac-LRHYINLITRQRY-NH2 (peptide, UniProt P01303 52-64, looked up) [AcNPY24-36], the “Increase in BP (rel to NPY), anaesthetised rats” value (“Increase in BP (rel to NPY)” for short) was 0 relative to NPY.

Ac-ARAALNAATRQRY-NH2 [Ac[A24,26,27,30,31,L28]NPY24-36]: the “Increase in BP (rel to NPY)” value is 0 relative to NPY.

Take Ac-LRHYLNLLTRQRY-NH2 [Ac[L28,L31]NPY24-36]: the “Increase in BP (rel to NPY)” value was 0 relative to NPY.

Turning to Ac-LRHALNLLTRQRY-NH2 [Ac[A27,L28,L31]NPY24-36], the “Increase in BP (rel to NPY)” value is 0 relative to NPY.

As to Ac-LRHYLNALTRQRY-NH2 [Ac[L28,A30,L31]NPY24-36], the “Increase in BP (rel to NPY)” value is 0 relative to NPY.

On to Ac-LRHYLALLTRQRY-NH2 [Ac[L28,A29,L31]NPY24-36], for which the “Increase in BP (rel to NPY)” value was 0 relative to NPY.

In the case of Ac-LRHYANLLTRQRY-NH2 [Ac[A28,L31]NPY24-36], the “Increase in BP (rel to NPY)” value was 0 relative to NPY.

Regarding Ac-LRHYLNLATRQRY-NH2 [Ac[L28,A31]NPY24-36], the “Increase in BP (rel to NPY)” value is 0 relative to NPY.

Regarding B1, the “Increase in BP (rel to NPY)” value is 0 relative to NPY.

With Ac-LRAYLNLLTRQRY-NH2 [Ac[A26,L28,L31]NPY24-36], the “Increase in BP (rel to NPY)” value is 0 relative to NPY.

Regarding Ac-LAHYRNLLTRQRY-NH2 [Ac[A25,R28,L31]NPY24-36], the “Increase in BP (rel to NPY)” value is 0 relative to NPY.

For Ac-LRHYLNLLARQRY-NH2 [Ac[L28,L31,A32]NPY24-36], the “Increase in BP (rel to NPY)” value was 0 relative to NPY.

On to Ac-LAHYLNLLTRQRY-NH2 [Ac[A25,L28,L31]NPY24-36], for which the “Increase in BP (rel to NPY)” value is 0 relative to NPY.

As to Ac-ARHYLNLLTRQRY-NH2 [Ac[A24,L28,L31]NPY24-36], the “Increase in BP (rel to NPY)” value is 0 relative to NPY.

As to Ac-LRAALNLLTRQRY-NH2 [Ac[A26,27,L28,31]NPY24-36], the “Increase in BP (rel to NPY)” value is 0 relative to NPY.

Take B2: the “Increase in BP (rel to NPY)” value is 1 relative to NPY.

For a further assay, the target named is T1, human neuropeptide Y Y1 receptor on …. Nature of the assay: competition with 30 pM [125I]NPY on SK-N-MC cells (human Y1), filtration.
The molecule Ac-LAHYRNLLTRQRY-NH2 [Ac[A25,R28,L31]NPY24-36] registered an IC50 of 692 nM.

Another assay addresses T2, human neuropeptide Y Y2 receptor on …. The assay can be described thus: competition with 30 pM [125I]NPY on SMS-MSN cells (human Y2), filtration.
Ac-ARAALNAATRQRY-NH2 [Ac[A24,26,27,30,31,L28]NPY24-36] came in with an IC50 of 3.16 nM.

As to Ac-LRHALNLLTRQRY-NH2 [Ac[A27,L28,L31]NPY24-36], the IC50 is 0.13 nM.

On to Ac-LRHYLNALTRQRY-NH2 [Ac[L28,A30,L31]NPY24-36], for which the IC50 worked out at 6.31 nM.

Ac-LRHYLALLTRQRY-NH2 [Ac[L28,A29,L31]NPY24-36] displayed an IC50 of 0.05 nM.

In the case of Ac-LRHYANLLTRQRY-NH2 [Ac[A28,L31]NPY24-36], the IC50 stood at 12.6 nM.

Consider Ac-LRHYLNLATRQRY-NH2 [Ac[L28,A31]NPY24-36], for which the IC50 worked out at 0.06 nM.

B1 registered a half-inhibitory concentration (IC50) of 0.03 nM.

Ac-LRAYLNLLTRQRY-NH2 [Ac[A26,L28,L31]NPY24-36] displayed a half-maximal inhibitory concentration (IC50) of 63.1 nM.

For the molecule Ac-LAHYRNLLTRQRY-NH2 [Ac[A25,R28,L31]NPY24-36], the IC50 was 0.1 nM.

Ac-LRHYLNLLARQRY-NH2 [Ac[L28,L31,A32]NPY24-36] showed an IC50 of 2.51 nM. This IC50 is about 25-fold higher than that of the molecule before.

On to Ac-LAHYLNLLTRQRY-NH2 [Ac[A25,L28,L31]NPY24-36], for which the IC50 amounted to 2 nM. The IC50 values of the last two molecules are within 1.5-fold of each other.

Ac-ARHYLNLLTRQRY-NH2 [Ac[A24,L28,L31]NPY24-36]: the IC50 was determined as 19.2 nM.
